Source: US20230192903A1 (published 2023)

Tests used:
Human CLDN18.2 [1] = molecular target: T1, Human CLDN18.2 (human); assay: flow cytometry, NUGC4-hCLDN18.2 cells
T1 construct: the cell line is named under assay; also called hCLDN18.2; human CLDN18.2 antigen
Method: (§1) NUGC4 and NUGC4-hCLDN18.2 cells were cultured, digested with pancreatin and centrifuged to collect cells. The cells were collected and resuspended in buffer (PBS+1% FBS) at 1×10⁴ cells/well in a 96-well plate at 100 μL per well. Then the mixture was centrifuged at 350×g for 5 min, and the supernatant was removed.

Human CLDN18.2 [2] = molecular target: T1, Human CLDN18.2; assay: flow cytometry, NUGC4 cells (endogenous CLDN18.2)
Method: as §1

murine CD3 antigen = molecular target: T2, murine CD3 antigen (murine, UniProt P22646 22-108, limits assumed); assay: SPR (Biacore T200), murine CD3 antigen on CM5 chip, 1:1 fit
T2 construct: also called Mouse CD3ϵ
Method: (§2) After the detection was completed, data fitting was carried out on the result pattern by adopting Biacore T200 Evaluation Software in a 1:1 binding fitting mode to obtain an equilibrium dissociation constant (KD).

human CD3 antigen [3] = molecular target: T3, human CD3 antigen (human, UniProt P07766 23-126); assay: detection method the same as in Examples 2-8 (Biacore)
T3 construct: also called Human CD3ϵ

Human CLDN18.2 [4] = molecular target: T1, Human CLDN18.2; assay: flow cytometry, NUGC4 cells (endogenous CLDN18.2); remark: listed apart in the source
Human CLDN18.1 = molecular target: T4, Human CLDN18.1 (human, UniProt P56856 1-261); assay: flow cytometry, 293T-hCLDN18.1 cells
T4 construct: also called hCLDN18.1

Human CLDN18.2 [5] = molecular target: T1, Human CLDN18.2; assay: cell-based or functional assay
human CD3 antigen [6] = molecular target: T3, human CD3 antigen; assay: SPR (Biacore T200), human CD3 antigen on CM5 chip
Method: as §2

Human CLDN18.2 [7] = molecular target: T1, Human CLDN18.2; assay: flow cytometry, NUGC4-hCLDN18.2 cells; remark: listed apart in the source
Method: as §1

T2 sequence (P22646 22-108 limits assumed): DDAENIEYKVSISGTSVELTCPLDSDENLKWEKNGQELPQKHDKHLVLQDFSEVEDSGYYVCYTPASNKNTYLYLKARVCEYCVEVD

B1: bispecific antibody SY1 (bispecific antibody, human IgG1, kappa)
light: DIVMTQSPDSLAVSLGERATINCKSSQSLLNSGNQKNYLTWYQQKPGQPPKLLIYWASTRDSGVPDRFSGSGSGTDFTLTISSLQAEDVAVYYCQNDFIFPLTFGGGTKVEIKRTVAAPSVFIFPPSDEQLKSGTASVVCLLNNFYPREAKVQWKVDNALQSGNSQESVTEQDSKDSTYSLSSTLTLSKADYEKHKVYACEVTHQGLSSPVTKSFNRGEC
heavy: QVQLQESGPGLVKPSETLSLTCTVSGFSLTRYGVSWIRQPPGKGLEWIGVIWGEGNTNYNPSLKSRVTISKDSSKSQVSLKLSSVTAADTAVYYCARVNFGNALDYWGQGTLVTVSSASTKGPSVFPLAPSSKSTSGGTAALGCLVKDYFPEPVTVSWNSGALTSGVHTFPAVLQSSGLYSLSSVVTVPSSSLGTQTYICNVNHKPSNTKVDKKVEPKSCDKTHTCPPCPAPPVAGPSVFLFPPKPKDTLMISRTPEVTCVVVDVSHEAPEVQFNWYVDGVEVHNAKTKPREEQFNSTFRVVSVLTVVHQDWLNGKEYKCKVSNKGLPAPIEKTISKTKGQPREPQVYTLPPCRDELTKNQVSLWCLVKGFYPSDIAVEWESNGQPENNYKTTPPVLDSDGSFFLYSKLTVDKSRWQQGNVFSCSVMHEALHNHYTQKSLSLSPGK
chain: EVQLVESGGGLVQPGKSLKLSCEASGFTFSGYGMHWVRQAPGRGLESVAYITSSSINIKYADAVKGRFTVSRDNAKNLLFLQMNILKSEDTAMYYCARFDWDKNYWGQGTMVTVSSGGGGSGGGGSGGGGSDIQMTQSPSSLPASLGDRVTINCQASQDISNYLNWYQQKPGKAPKLLIYYTNKLADGVPSRFSGSGSGRDSSFTISSLESEDIGSYYCQQYYNYPWTFGPGTKLEIKGRGRGSDKTHTCPPCPAPPVAGPSVFLFPPKPKDTLMISRTPEVTCVVVDVSHEAPEVQFNWYVDGVEVHNAKTKPREEQFNSTFRVVSVLTVVHQDWLNGKEYKCKVSNKGLPAPIEKTISKTKGQPREPQVCTLPPSRDELTKNQVSLSCAVKGFYPSDIAVEWESNGQPENNYKTTPPVLDSDGSFFLVSKLTVDKSRWQQGNVFSCSVMHEALHNHYTQKSLSLSPGK
notes: YBODY structure: anti-CLDN18.2 Fab arm (2C6.9) and single chain anti-mouse CD3 scFv (2C11)-Fc
EC50 (Human CLDN18.2 [1]): 125 nM
EC50 (Human CLDN18.2 [2]): 304 nM
Kd (murine CD3 antigen): 79.3 nM

B2: bispecific antibody SCS1 (bispecific antibody, human IgG1, kappa)
light: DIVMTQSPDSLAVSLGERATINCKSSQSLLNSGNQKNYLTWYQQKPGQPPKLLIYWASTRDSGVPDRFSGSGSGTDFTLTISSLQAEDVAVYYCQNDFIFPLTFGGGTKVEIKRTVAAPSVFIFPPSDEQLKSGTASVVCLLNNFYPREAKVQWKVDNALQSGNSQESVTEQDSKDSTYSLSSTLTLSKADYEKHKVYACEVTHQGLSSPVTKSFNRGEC
heavy 1: QVQLQESGPGLVKPSETLSLTCTVSGFSLTRYGVSWIRQPPGKGLEWIGVIWGEGNTNYNPSLKSRVTISKDSSKSQVSLKLSSVTAADTAVYYCARVNFGNALDYWGQGTLVTVSSASTKGPSVFPLAPSSKSTSGGTAALGCLVKDYFPEPVTVSWNSGALTSGVHTFPAVLQSSGLYSLSSVVTVPSSSLGTQTYICNVNHKPSNTKVDKKVEPKSCDKTHTCPPCPAPPVAGPSVFLFPPKPKDTLMISRTPEVTCVVVDVSHEAPEVQFNWYVDGVEVHNAKTKPREEQFNSTFRVVSVLTVVHQDWLNGKEYKCKVSNKGLPAPIEKTISKTKGQPREPQVYTLPPCRDELTKNQVSLWCLVKGFYPSDIAVEWESNGQPENNYKTTPPVLDSDGSFFLYSKLTVDKSRWQQGNVFSCSVMHEALHNHYTQKSLSLSPGK
heavy 2: QVQLQESGPGLVKPSETLSLTCTVSGFSLTRYGVSWIRQPPGKGLEWIGVIWGEGNTNYNPSLKSRVTISKDSSKSQVSLKLSSVTAADTAVYYCARVNFGNALDYWGQGTLVTVSSASTKGPSVFPLAPSSKSTSGGTAALGCLVKDYFPEPVTVSWNSGALTSGVHTFPAVLQSSGLYSLSSVVTVPSSSLGTQTYICNVNHKPSNTKVDKKVEPKSCDKTHTAPAPAPAPAPAPAPAPEVQLVESGGGLVQPGKSLKLSCEASGFTFSGYGMHWVRQAPGRGLESVAYITSSSINIKYADAVKGRFTVSRDNAKNLLFLQMNILKSEDTAMYYCARFDWDKNYWGQGTMVTVSSGGGGSGGGGSGGGGSDIQMTQSPSSLPASLGDRVTINCQASQDISNYLNWYQQKPGKAPKLLIYYTNKLADGVPSRFSGSGSGRDSSFTISSLESEDIGSYYCQQYYNYPWTFGPGTKLEIKGGGGSDKTHTCPPCPAPPVAGPSVFLFPPKPKDTLMISRTPEVTCVVVDVSHEAPEVQFNWYVDGVEVHNAKTKPREEQFNSTFRVVSVLTVVHQDWLNGKEYKCKVSNKGLPAPIEKTISKTKGQPREPQVCTLPPSRDELTKNQVSLSCAVKGFYPSDIAVEWESNGQPENNYKTTPPVLDSDGSFFLVSKLTVDKSRWQQGNVFSCSVMHEALHNHYTQKSLSLSPGK
notes: CSBODY structure: two 2C6.9 Fab arms; second heavy chain (first heavy entry) and first heavy chain with anti-mouse CD3 scFv (2C11) between CH1 and Fc2; also called SCSI
EC50 (Human CLDN18.2 [1]): 25.4 nM
EC50 (Human CLDN18.2 [2]): 29.1 nM
Kd (murine CD3 antigen): 94.1 nM

B3: Bispecific antibody molecule YCS4 (bispecific antibody, human IgG1, kappa)
light 1: not shown
light 2: not shown
heavy 1: QVQLQESGPGLVKPSETLSLTCTVSGFSLTRYGVSWIRQPPGKGLEWIGVIWGEGNTNYNPSLKSRVTISKDSSKSQVSLKLSSVTAADTAVYYCARVNFGNALDYWGQGTLVTVSSASTKGPSVFPLAPSSKSTSGGTAALGCLVKDYFPEPVTVSWNSGALTSGVHTFPAVLQSSGLYSLSSVVTVPSSSLGTQTYICNVNHKPSNTKVDKKVEPKSCDKTHTCPPCPAPPVAGPSVFLFPPKPKDTLMISRTPEVTCVVVDVSHEAPEVQFNWYVDGVEVHNAKTKPREEQFNSTFRVVSVLTVVHQDWLNGKEYKCKVSNKGLPAPIEKTISKTKGQPREPQVYTLPPCRDELTKNQVSLWCLVKGFYPSDIAVEWESNGQPENNYKTTPPVLDSDGSFFLYSKLTVDKSRWQQGNVFSCSVMHEALHNHYTQKSLSLSPGK
heavy 2: EVQLVESGGGLVKPGGSLRLSCAASGFSFSNSAMSWVRQAPGKGLEWVSTISSGDSYTYYADSVKGRFTISRDNAKNSLYLQMNSLRAEDTAVYYCARQGYGNALDYWGQGTLVTVSSASTKGPSVFPLAPSSKSTSGGTAALGCLVKDYFPEPVTVSWNSGALTSGVHTFPAVLQSSGLYSLSSVVTVPSSSLGTQTYICNVNHKPSNTKVDKKVEPKSCDKTHTAPAPAPAPAPAPAPAPQVQLVESGGGVVQPGRSLRLSCAASGFTFSTYAMNWVRQAPGKGLEWVARIRSKYNNYATYYADSVKDRFTISRDDSKNTLYLQMNSLRAEDTAVYYCARHGNFGNSYVSWFAYWGQGTLVTVSSGGGGSGGGGSGGGGSQTVVTQEPSLTVSPGGTVTLTCRSSTGAVTTSNYANWVQQKPGQAPRGLIGGTNKRAPGVPARFSGSLLGGKAALTLSGVQPEDEAEYYCALWYSNLWVFGGGTKVEIKGGGGSDKTHTCPPCPAPPVAGPSVFLFPPKPKDTLMISRTPEVTCVVVDVSHEAPEVQFNWYVDGVEVHNAKTKPREEQFNSTFRVVSVLTVVHQDWLNGKEYKCKVSNKGLPAPIEKTISKTKGQPREPQVCTLPPSRDELTKNQVSLSCAVKGFYPSDIAVEWESNGQPENNYKTTPPVLDSDGSFFLVSKLTVDKSRWQQGNVFSCSVMHEALHNHYTQKSLSLSPGK
notes: CS4 with the first heavy/light chain variable regions replaced by 1E9.2; order of chains: first light, second light, second heavy, first heavy
binding result (human CD3 antigen [3]): binds

B4: bispecific antibody Y17 (bispecific antibody, human IgG1, kappa)
light: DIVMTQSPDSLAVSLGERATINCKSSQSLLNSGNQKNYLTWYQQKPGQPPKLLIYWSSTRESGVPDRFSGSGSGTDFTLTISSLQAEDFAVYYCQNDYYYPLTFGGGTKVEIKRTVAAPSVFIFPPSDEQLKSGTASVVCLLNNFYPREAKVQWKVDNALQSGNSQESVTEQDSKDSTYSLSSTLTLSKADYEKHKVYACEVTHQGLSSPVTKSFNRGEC
heavy: EVQLVESGGGLVKPGGSLRLSCAASGFSFSNSAMSWVRQAPGKGLEWVSTISSGDSYTYYADSVKGRFTISRDNAKNSLYLQMNSLRAEDTAVYYCARQGYGNALDYWGQGTLVTVSSASTKGPSVFPLAPSSKSTSGGTAALGCLVKDYFPEPVTVSWNSGALTSGVHTFPAVLQSSGLYSLSSVVTVPSSSLGTQTYICNVNHKPSNTKVDKKVEPKSCDKTHTCPPCPAPPVAGPSVFLFPPKPKDTLMISRTPEVTCVVVDVSHEAPEVQFNWYVDGVEVHNAKTKPREEQFNSTFRVVSVLTVVHQDWLNGKEYKCKVSNKGLPAPIEKTISKTKGQPREPQVYTLPPCRDELTKNQVSLWCLVKGFYPSDIAVEWESNGQPENNYKTTPPVLDSDGSFFLYSKLTVDKSRWQQGNVFSCSVMHEALHNHYTQKSLSLSPGK
chain: QVQLVESGGGVVQPGRSLRLSCAASGFTFSTYAMNWVRQAPGKGLEWVGRIRSKYNNYATYYADSVKDRFTISRDDSKNTLYLQMNSLRGEDTAVYYCARHGNFGNSYVSWFAYWGQGTLVTVSSGGGGSGGGGSGGGGSQTVVTQEPSLTVSPGGTVTLTCRSSTGAVTTSNYANWVQQKPGQAPRGLIGGTNKRAPGVPARFSGSLLGGKAALTLSGVQPEDEAEYTCALWYSNLWVFGGGTKVEIKGRGRGSDKTHTCPPCPAPPVAGPSVFLFPPKPKDTLMISRTPEVTCVVVDVSHEAPEVQFNWYVDGVEVHNAKTKPREEQFNSTFRVVSVLTVVHQDWLNGKEYKCKVSNKGLPAPIEKTISKTKGQPREPQVCTLPPSRDELTKNQVSLSCAVKGFYPSDIAVEWESNGQPENNYKTTPPVLDSDGSFFLVSKLTVDKSRWQQGNVFSCSVMHEALHNHYTQKSLSLSPGK
notes: YBODY structure: anti-CLDN18.2 Fab arm (1E9.2) and second monomer anti-CD3 scFv (Di6-2)-Fc
EC50 (Human CLDN18.2 [4]): < 100 nM
binding result (Human CLDN18.1): no binding
EC50 value for killing effect on NUGC4-hCLDN18.2 cells (Human CLDN18.2 [5]): < 0.01 nM
EC50 value for killing effect on NUGC4 cells (Human CLDN18.2 [5]): < 0.01 nM
Kd (human CD3 antigen [6]): < 15 nM
EC50 (Human CLDN18.2 [7]): < 50 nM
